Data on four molecules can be found in US20200347136A1 (published 2020).

Bridge positions count the residues as written; N and C are the ends. Square brackets hold non-standard residues; d marks the D form. DBF = dibenzofuran moiety used in place of Pro-Pro

The target of experiment [1] is T1, CD58 expressed on OVCAR-3 and HFLS-RA cells (human, UniProt P19256 29-250).
T1 sequence (looked up): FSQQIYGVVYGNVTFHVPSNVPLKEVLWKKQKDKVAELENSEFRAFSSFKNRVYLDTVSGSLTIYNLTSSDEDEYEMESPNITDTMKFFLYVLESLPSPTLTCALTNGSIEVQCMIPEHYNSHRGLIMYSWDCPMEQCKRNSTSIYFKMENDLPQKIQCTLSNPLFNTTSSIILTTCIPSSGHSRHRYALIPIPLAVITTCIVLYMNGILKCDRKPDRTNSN
The experiment in a line: cell-based or functional assay.

Experiment [2] deals with CD58 expressed on sheep red blood cells (SRBC) (sheep). The experiment in a line: cell-based or functional assay.

B1: SFTI-a1 (peptide)
peptide: cyclo(CKSAPPSCAYDGDD)
modifications: disulfide 1-8
SMILES: C[C@@H]1NC(=O)[C@@H]2CSSC[C@H](NC(=O)[C@H](CC(=O)O)NC(=O)[C@H](CC(=O)O)NC(=O)CNC(=O)[C@H](CC(=O)O)NC(=O)[C@H](Cc3ccc(O)cc3)NC1=O)C(=O)N[C@@H](CCCCN)C(=O)N[C@@H](CO)C(=O)N[C@@H](C)C(=O)N1CCC[C@H]1C(=O)N1CCC[C@H]1C(=O)N[C@@H](CO)C(=O)N2
Consider B1, for which the “IC50, cell adhesion inhibition” value in experiment [1] was 22 nM.

Turning to cyclo(CKSA[DBF]SCAYDGDD) (disulfide 1-7 (inferred)) [SFTI-DBF], in experiment [1], the “IC50, inhibition of adhesion between Jurkat and HFLS-RA cells” value was determined as 3 nM; the “IC50, inhibition of adhesion between Jurkat and OVCAR-3 cells” value was 0.61 nM.

B2: SFTI-a (peptide)
peptide: cyclo(CKASAPPSCYDGDD)
modifications: disulfide 1-9
SMILES: C[C@@H]1NC(=O)[C@H](CCCCN)NC(=O)[C@@H]2CSSC[C@H](NC(=O)[C@H](CO)NC(=O)[C@@H]3CCCN3C(=O)[C@@H]3CCCN3C(=O)[C@H](C)NC(=O)[C@H](CO)NC1=O)C(=O)N[C@@H](Cc1ccc(O)cc1)C(=O)N[C@@H](CC(=O)O)C(=O)NCC(=O)N[C@@H](CC(=O)O)C(=O)N[C@@H](CC(=O)O)C(=O)N2
For B2, in experiment [1], the “IC50, cell adhesion (PPI) inhibition” value worked out at 51 nM.

Regarding cyclo(SIYD[dP]PDDIK) [Peptide 6], in experiment [2], the “IC50, inhibition of E-rosette formation” value turned out to be 9.4 nM.
